Results taken from publication PMC3068996.

Molecular target: recombinant GST-tagged TgNF3 (Toxoplasma gondii nuclear factor 3) (T. gondii)
Test: pull-down

## purified core histones from HeLa cells (H3, H4, H2A/H2B) (from UniProt P68431 1-136; P62805 1-103; P0C0S8 1-130; P62807 1-126) (complex)
  percent of input bound: 25%
